How the values were obtained:
[1] = target: human adenosine receptor A1 (human) (UniProt P30542); experiment: flow cytometry on HEK293T-A1 cells; anti-FLAG 2 ug/mL, positive control; duplicate 1
[2] = target: human adenosine receptor A1 (human) (UniProt P30542); experiment: flow cytometry on HEK293T-A1 cells; anti-FLAG 2 ug/mL, positive control; duplicate 2
[3] = target: T1, human adenosine receptor A3 (human, UniProt P0DMS8 1-318); experiment: flow cytometry on HEK293T-A3 cells; anti-FLAG 2 ug/mL, positive control; duplicate 1
T1 construct: whole, on cells; the tag is not described; also called A3R; human A3R
T1 sequence (looked up): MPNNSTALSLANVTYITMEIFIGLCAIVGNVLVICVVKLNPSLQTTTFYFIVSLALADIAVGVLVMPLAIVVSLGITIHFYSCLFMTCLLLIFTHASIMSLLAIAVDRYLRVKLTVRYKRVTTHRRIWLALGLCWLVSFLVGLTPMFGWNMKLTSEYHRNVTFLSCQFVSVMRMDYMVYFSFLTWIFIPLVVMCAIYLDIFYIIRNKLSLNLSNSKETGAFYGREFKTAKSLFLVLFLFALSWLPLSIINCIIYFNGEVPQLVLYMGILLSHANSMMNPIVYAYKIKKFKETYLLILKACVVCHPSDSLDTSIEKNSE

[4] = target: T1, human adenosine receptor A3; experiment: flow cytometry on HEK293T-A3 cells; anti-FLAG 2 ug/mL, positive control; duplicate 2
[5] = target: T2, human adenosine A2A receptor (A2aR) (human, UniProt P29274 1-412); experiment: flow cytometry on HEK293T-A2A cells; anti-FLAG 2 ug/mL, positive control; duplicate 1
[6] = target: T2, human adenosine A2A receptor (A2aR); experiment: flow cytometry on HEK293T-A2A cells; anti-FLAG 2 ug/mL, positive control; duplicate 2
[7] = target: T3, human adenosine receptor A2B (human, UniProt P29275 1-332); experiment: flow cytometry on HEK293T-A2B cells; anti-FLAG 2 ug/mL, positive control; duplicate 1
T3 construct: whole, on cells; the tag is not described; also called A2bR; human A2bR
T3 sequence (looked up): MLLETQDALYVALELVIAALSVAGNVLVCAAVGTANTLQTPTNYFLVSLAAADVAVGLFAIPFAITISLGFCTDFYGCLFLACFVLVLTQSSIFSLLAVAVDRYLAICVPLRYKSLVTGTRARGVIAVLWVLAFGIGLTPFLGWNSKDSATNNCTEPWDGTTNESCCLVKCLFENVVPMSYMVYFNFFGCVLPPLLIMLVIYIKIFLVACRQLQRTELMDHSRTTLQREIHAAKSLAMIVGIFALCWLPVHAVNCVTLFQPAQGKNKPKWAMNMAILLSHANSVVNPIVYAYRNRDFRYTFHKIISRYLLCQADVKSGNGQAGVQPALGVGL

[8] = target: T3, human adenosine receptor A2B; experiment: flow cytometry on HEK293T-A2B cells; anti-FLAG 2 ug/mL, positive control; duplicate 2
[9] = target: T4, mouse adenosine receptor A2A (mouse, UniProt Q60613 1-410); experiment: flow cytometry on HEK293T-mA2A cells; anti-FLAG 2 ug/mL, positive control; duplicate 1
T4 construct: whole, on cells; the tag is not described; also called mouse A2aR; mouse A2R

[10] = target: T4, mouse adenosine receptor A2A; experiment: flow cytometry on HEK293T-mA2A cells; anti-FLAG 2 ug/mL, positive control; duplicate 2
[11] = target: human adenosine receptor A1 (human) (UniProt P30542); experiment: flow cytometry on HEK293T-A1 cells; isotype control 10 nM; duplicate 1
[12] = target: human adenosine receptor A1 (human) (UniProt P30542); experiment: flow cytometry on HEK293T-A1 cells; isotype control 10 nM; duplicate 2
[13] = target: human adenosine receptor A1 (human) (UniProt P30542); experiment: flow cytometry on HEK293T-A1 cells; isotype control 50 nM; duplicate 1
[14] = target: human adenosine receptor A1 (human) (UniProt P30542); experiment: flow cytometry on HEK293T-A1 cells; isotype control 50 nM; duplicate 2
[15] = target: T1, human adenosine receptor A3; experiment: flow cytometry on HEK293T-A3 cells; isotype control 10 nM; duplicate 1
[16] = target: T1, human adenosine receptor A3; experiment: flow cytometry on HEK293T-A3 cells; isotype control 10 nM; duplicate 2
[17] = target: T1, human adenosine receptor A3; experiment: flow cytometry on HEK293T-A3 cells; isotype control 50 nM; duplicate 1
[18] = target: T1, human adenosine receptor A3; experiment: flow cytometry on HEK293T-A3 cells; isotype control 50 nM; duplicate 2
[19] = target: T2, human adenosine A2A receptor (A2aR); experiment: flow cytometry on HEK293T-A2A cells; isotype control 10 nM; duplicate 1
[20] = target: T2, human adenosine A2A receptor (A2aR); experiment: flow cytometry on HEK293T-A2A cells; isotype control 10 nM; duplicate 2
[21] = target: T2, human adenosine A2A receptor (A2aR); experiment: flow cytometry on HEK293T-A2A cells; isotype control 50 nM; duplicate 1
[22] = target: T2, human adenosine A2A receptor (A2aR); experiment: flow cytometry on HEK293T-A2A cells; isotype control 50 nM; duplicate 2
[23] = target: T3, human adenosine receptor A2B; experiment: flow cytometry on HEK293T-A2B cells; isotype control 10 nM; duplicate 1
[24] = target: T3, human adenosine receptor A2B; experiment: flow cytometry on HEK293T-A2B cells; isotype control 10 nM; duplicate 2
[25] = target: T3, human adenosine receptor A2B; experiment: flow cytometry on HEK293T-A2B cells; isotype control 50 nM; duplicate 1
[26] = target: T3, human adenosine receptor A2B; experiment: flow cytometry on HEK293T-A2B cells; isotype control 50 nM; duplicate 2
[27] = target: T4, mouse adenosine receptor A2A; experiment: flow cytometry on HEK293T-mA2A cells; isotype control 10 nM; duplicate 1
[28] = target: T4, mouse adenosine receptor A2A; experiment: flow cytometry on HEK293T-mA2A cells; isotype control 10 nM; duplicate 2
[29] = target: T4, mouse adenosine receptor A2A; experiment: flow cytometry on HEK293T-mA2A cells; isotype control 50 nM; duplicate 1
[30] = target: T4, mouse adenosine receptor A2A; experiment: flow cytometry on HEK293T-mA2A cells; isotype control 50 nM; duplicate 2
tumor = conditions: mice treated with A2aR antagonist; background statement; cited from earlier work
[31] = target: T2, human adenosine A2A receptor (A2aR); experiment: cell-based or functional assay
[32] = target: T1, human adenosine receptor A3; experiment: flow cytometry on HEK293T cells stably expressing human A3R
[33] = target: T3, human adenosine receptor A2B; experiment: flow cytometry on HEK293T cells stably expressing human A2bR
[34] = target: T4, mouse adenosine receptor A2A; experiment: flow cytometry on HEK293T cells stably expressing mouse A2aR
human A2aR = target: T5, human A2aR (Homo sapiens, UniProt P29274); experiment: FACS screening of hybridoma clones on human A2aR-expressing Expi293 cells; type: binding; conditions: antibodies from hybridoma clones
T5 construct: expressed in transfected cells; host or cells: Expi293
Method: (§1) Serum titration was performed using Fluorescence-Activated Cell Sorting (FACS) pursuant to standard procedures. Human A2aR-expressing Expi293 cells were first added to 96-well plate (1×10^5 cells per well), 50 μl of serial diluted serum (1:50, 1;150, 1:450, 1:[…], 1:12150) from each individual mouse was incubated with cells for 30 min. on ice. After washing with FACS buffer (2% Fetal bovine serum, 2 mM EDTA in PBS), Alex Fluor 647-conjugated anti mouse IgG was added and incubated for 20 min on ice. Cells were resuspending with 100 μl FACS buffer after two times wash and ready for FACS analysis (BD LSR II Flow Cytometer, HTS). […] (MFI: mean fluorescence intensity).
(§2) Primary screening of the hybridoma supernatants in the 96-well plates was performed using the same FACS procedure as described for serum titration except following changes: 1) Human A2aR-expressing Expi293 cells (expressing GFP) were mixed at 1:1 ratio with parental Expi293 (no A2aR expression) and added to 96-well plates (2×10^5 cells per well), 2) 50 μl hybridoma supernatant transferred from each well of 96-well plates was incubated with cells for 30 min. on ice.
(§3) Sub-cloning was performed by limiting dilution method. In short, the positive wells identified by FACS were seeded into 96-well plate at an average density of 1 cell/well. The […] was placed in incubator for 7-10 days to allow the growth of the cells. The growth of cells was monitored periodically. At about day 4, the wells on the plate were observed under phase contrast microscopy and the wells which appeared to have single colony growing (i.e., only one clumping of hybridomas) were recorded. The cells from the single colony wells were screed by FACS using the same procedure as described for primary screening of hybridoma when the confluence of the cell reached about 50%.

parental Expi293 cells = experiment: FACS screening of hybridoma clones on parental Expi293 cells; type: binding; conditions: antibodies from hybridoma clones
Method: as §1, §2, §3

Chain of human adenosine receptor A1 (human) (P30542 whole entry): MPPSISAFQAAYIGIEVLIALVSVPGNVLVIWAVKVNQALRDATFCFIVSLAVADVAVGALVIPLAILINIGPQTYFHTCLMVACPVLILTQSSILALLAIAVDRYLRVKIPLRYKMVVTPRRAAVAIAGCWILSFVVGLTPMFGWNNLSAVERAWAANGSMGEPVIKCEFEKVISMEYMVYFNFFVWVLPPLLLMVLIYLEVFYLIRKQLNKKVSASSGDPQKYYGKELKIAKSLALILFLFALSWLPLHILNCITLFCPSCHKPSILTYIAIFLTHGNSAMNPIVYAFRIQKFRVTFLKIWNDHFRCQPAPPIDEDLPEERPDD
T4 sequence (Q60613 whole entry): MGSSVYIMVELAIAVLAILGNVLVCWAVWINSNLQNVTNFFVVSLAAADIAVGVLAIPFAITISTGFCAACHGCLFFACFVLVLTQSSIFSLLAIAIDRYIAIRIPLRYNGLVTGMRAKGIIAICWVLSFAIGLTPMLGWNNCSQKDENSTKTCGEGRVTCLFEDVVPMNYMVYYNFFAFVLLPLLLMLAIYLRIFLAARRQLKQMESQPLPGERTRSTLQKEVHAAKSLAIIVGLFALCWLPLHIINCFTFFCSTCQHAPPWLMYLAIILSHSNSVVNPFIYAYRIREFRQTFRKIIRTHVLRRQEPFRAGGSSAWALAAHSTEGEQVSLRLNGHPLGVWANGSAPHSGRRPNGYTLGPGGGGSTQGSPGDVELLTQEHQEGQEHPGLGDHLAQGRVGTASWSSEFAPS
T2 sequence (P29274 whole entry): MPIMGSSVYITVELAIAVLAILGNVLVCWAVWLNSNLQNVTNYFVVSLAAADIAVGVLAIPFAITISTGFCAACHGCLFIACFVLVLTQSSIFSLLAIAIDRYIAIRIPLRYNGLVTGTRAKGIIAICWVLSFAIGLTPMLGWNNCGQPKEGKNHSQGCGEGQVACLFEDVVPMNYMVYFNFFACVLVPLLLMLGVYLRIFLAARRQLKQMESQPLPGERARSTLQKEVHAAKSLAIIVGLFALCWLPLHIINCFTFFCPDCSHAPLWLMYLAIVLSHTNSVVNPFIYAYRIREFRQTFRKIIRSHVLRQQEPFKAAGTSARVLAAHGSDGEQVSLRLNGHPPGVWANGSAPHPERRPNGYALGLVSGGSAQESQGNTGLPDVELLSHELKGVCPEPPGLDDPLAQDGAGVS
T5 sequence (P29274 whole entry): as above

Anti-FLAG antibody (Abcam, ab72469)
Geo Mean [1]: 53.3 | Geo Mean [2]: 121 | Geo Mean [3]: 48.2 | Geo Mean [4]: 47.4 | Geo Mean [5]: 183 | Geo Mean [6]: 223 | Geo Mean [7]: 78.6 | Geo Mean [8]: 50.1 | Geo Mean [9]: 70.4 | Geo Mean [10]: 105

mouse IgG2a isotype control (antibody)
Geo Mean [11]: 2.48 | Geo Mean [12]: 2.24 | Geo Mean [13]: 2.5 | Geo Mean [14]: 2.7 | Geo Mean [15]: 1.9 | Geo Mean [16]: 1.81 | Geo Mean [17]: 1.87 | Geo Mean [18]: 1.84 | Geo Mean [19]: 2.97 | Geo Mean [20]: 2.82 | Geo Mean [21]: 2.92 | Geo Mean [22]: 2.83 | Geo Mean [23]: 2.42 | Geo Mean [24]: 2.41 | Geo Mean [25]: 2.33 | Geo Mean [26]: 2.69 | Geo Mean [27]: 2 | Geo Mean [28]: 2.39 | Geo Mean [29]: 2.05 | Geo Mean [30]: 2.06

Nc1nc(NCCc2ccc(O)cc2)nc2nc(-c3ccco3)nn12 [ZM241385]
tumor growth (tumor): significant delay in tumor growth

B1: anti-human A2aR monoclonal antibody 3F6-9G5 (mouse IgG2a format) (antibody, V domains shown)
VH: QVQLQQPGTELVKPGAPVRLSCKASGFAFTSYWMNWVRQRPGRGLEWIGRIDPSDSEAHYHHKFWGKATLTVDKSSSTVYIQLNGLTSEDSAVYYCLRSLYGKGDYWGHGTTLTVSS
VL: DVLMTQTPLSLSVRLGDQASISCRSSQSLVHRNGNTYLEWYLQRPGQSPKLLIYKVSNRFSGVPDRFSGSGSGTDFTLKISRVEAEDLGVYYCYQGSHVPLTFGSGTKLEIK
notes: Tested as whole mouse IgG2a / kappa, purified from hybridoma supernatant or made recombinantly in Expi293 cells
IC50 (M), cAMP-Glo assay of NECA-induced cAMP in HEK293 cells stably expressing human A2aR [31]: 1.57e-09 M | binding result [32]: no binding (tested: 2, 10 and 50 nM tested) | binding result [33]: no binding (tested: 2, 10 and 50 nM tested) | binding result [34]: no binding (tested: 2, 10 and 50 nM tested)

B2: anti-human A2aR monoclonal antibody 3F8-12E9 (antibody, mouse IgG2a, V domains shown)
VH: QVQLQQPGTELVKPGAPVKLSCKASGFTFTRYWMNWVKQRPGRGLEWIGRIDPSDSETHYNHKFWGKATLTVDKSSSTAYIQLNSLTSEDSAVYYCLRSLYGKGDYWGQGTTLTVSS
VL: DVLMTQTPLSLSVGLGDQASISCRSSQSIVHSNGNTYLEWYLQRPGQSPKLLIYKVSNRFSGVPDRFSGSGSGTDFTLKISRVEAEDLGVYYCYQGSHVPLTFGSGTKLEIK
IC50 (M), cAMP-Glo assay of NECA-induced cAMP in HEK293 cells stably expressing human A2aR [31]: 4.35e-09 M | binding to human A2aR-expressing cells (FIG. 2) (human A2aR): specific binding | binding to parental Expi293 cells (FIG. 2) (parental Expi293 cells): not to parental Expi293 cells

From patent publication US20230340132A1, “ANTI-ADENOSINE RECEPTOR (A2aR) ANTIBODIES” (NA Biotech Corp, priority 2020, published 2023)
